Laboratory results as given in the DeepSol protein solubility set.

assay: soluble on expression in E. coli; label from the status in PepcDB or PDB records

| Sequence | soluble on expression in E. coli |
| --- | --- |
| MGHHHHHHSHMLKKMGEAVARVARKVNETVESGSDTLDLAECKLVSFPIGIYKVLRNVSGQIHLITLANNELKSLTSKFMTTFSQLRDVPVEKLAAMPALRSINLRFNPLNAEVRVIAPPLIKFDMLMSPEGARAPLP | not soluble |
| GSHMDDDLVDAEGNLVENGGTYYLLPHIWAHGGGIETAKTGNEPCPLTVVRSPNEVSKGEPIRISSQYRSLFIPRGSLVALGFANPPSCAASPWWTVVDSPQGPAVKLSQQKLPEKDILVFKFEKVSHSNIHVYKLLYCQHDEEDVKCDQYIGIHRDRNGNRRLVVTEENPLELVLLKAKSETASSH | soluble |
| MTKRIEIKPATAADQAALAEIYLVDRQQDFPWVTDPQLQDFNEDSRGEFVLVAWIDGQRAGFCSLYRLANFIHLLFVAPDFRHLKVGERLLTEMRQYATEPLTLKCVMANENALRFYAQVGFRIVKADADALPPNYTLRDTHTEQYVALVDVMANERKLN | soluble |
| MSRAVSRLIEACGRLSITQRSQMHFFRPPPTSSILPPLVTPSTTIVEKSIELPSLENPQQIYTFPTLHRSPIVAPGAILTEILEKLAPTAEKGFLIAPGTPNKSPMWLSPRLLTIRRKKMKKHKRRRRYDRDFFKYQKYHREKKLKSEREFQKRMKSLLTELEAFNPEKYVKDTIRMANKEWQDELAPTGRKLYPHWSRFMSLEQLYGLPKSEYIDKRAGLPTPEEAEQIKALKEKYAKLYRKK | soluble |
| MGSDKIHHHHHHMKNLRLTLAVIAGKILIYISRLLGHQGTSLPGRIARKIYPRILRTLSTNIRREIVVITGTNGKTTTSNMLAEILQQQGYSLVHNRLGANMLSGITTAFIEKSDIYGSRRFDYALLETDEATVPLLLRETRPRLVLITNFFQDQLDRYGEMDHTIKLIQEAVKDQEIEMLLNADDPLTANFEAETGLKCRYYGFDGNSCDSNRSIDSREVRYCAFCGHPLEYEKYHYAQLGQYSCPQCHSCNPERDFTGQELEMSPDIELKVDGMALKSPYQGFHNAYNILAAVSLARLLGVEEENIKKAIASFQPQAGRMEAFFINGKRVVLALVKNPAALNQTLASLIYDPSRKNLFFALNDNAADGRDISWIWDADVELLEYENVMVEQIVCSGQRSGDIALRFKYAGFPQERIRIEAELPRAIELAVQGSAESSYILCSYTALFACQRILREMEKRSGAGEETEKAYQPQS | not soluble |
| MTKHKERVMYYGKGDVFAYRTYLKPLTGVRTIPESPFSGRDHILFGVNVKISVGGTKLLTSFTKGDNSLVVATDSMKNFIQKHLASYTGTTIEGFLEYVATSFLKKYSHIEKISLIGEEIPFETTFAVKNGNRAASELVFKKSRNEYATAYLNMVRNEDNTLNITEQQSGLAGLQLIKVSGNSFVGFIRDEYTTLPEDSNRPLFVYLNIKWKYKNTEDSFGTNPENYVAAEQIRDIATSVFHETETLSIQHLIYLIGRRILERFPQLQEVYFESQNHTWDKIVEEIPESEGKVYTEPRPPYGFQCFTVTQEDLPHENIL | soluble |
| MGSDKIHHHHHHVDRGCQWRGDDSLRGQRHERRGQLRLMGAAEYASQVRTLPKLGLGVGLRNEHFNHILSERPNVDWFEAISENFMDSGGRPGWVIRQIAEHYPIVLHGVSLSIGSADPLNEGYLARLKLLADDVQAKWVSDHLCWTGVLSINSHDLLPLPLNEETLGHVTSRVHHVQEVLGRPLILENPSTYASFQTSDIPEPEFLRALSDATGCGLLLDVNNVYVSCFNDGTDPLEYLEKIPFEKVIQMHLAGHTNCGEFLLDTHDQPVTRGVWELFRLAWQRTGGAATLLEWDGDVPAFEDLHAEVLKAREFMAGEVEALHLYQGAAAPGRARVSNPVDHIVSPVRGHSRLDA | not soluble |
| MSLSNSPLPPNATPMERALAAVTERLEAIPLPYPDLWNPDTCPAGHLPWLAWTLSVDDWKADWSDAVKRSRLRSAMAIQRRKGTANSVRMVVASFGGAVTIREWWQQQPRGQPHTFELTLTLNGSDGRAASARFVDEVIAEVERTKPVRSHFGFVQGLQATGNVSLVTGVRIINYRRLSMMAQGEGHHHHHH | not soluble |
| MSLSEKKVHLRLRKELSVPIAVVENESLAQLSYEEESQASLMDISMEQQQLRLHSHFDNSKVFTENNRYIVKTLQTDYSSGFSNDDELNGYIDMQIGYGLVNDHKKVYIWNIHSTQKDTPYITVPFRSDDNDEIAVAPRCILTFPATMDESPLALNPNDQDETGGLIIIKGSKAIYYEDINSINNLNFKLSEKFSHELELPINSSGGEKCDLMLNCEPAGIVLSTNMGRIFFITIRNSMGKPQLKLGKLLNKPFKLGIWSKIFNTNSSVVSLRNGPILGKGTRLVYITTNKGIFQTWQLSATNSHPTKLIDVNIYEAILESLQDLYPFAHGTLKIWDSHPLQDESSQLFLSSIYDSSCNETYYILSTIIFDSSSNSFTIFSTYRLNTFMESITDTKFKPKIFIPQMENANDTNEVTSILVMFPNAVVITQVNSKLDSSYSMRRKWEDIVSLRNDIDIIGSGYDSKSLYVLTKQMGVLQFFVKENEETNSKPEVGFVKSHVDQAVYFSKINANPIDFNLPPEISLDQESIEHDLKLTSEEIFHSNGKYIPPMLNTLGQHLSVRKEFFQNFLTFVAKNFNYKISPELKLDLIEKFEILNCCIKFNSIIRQSDVLNDIWEKTLSNYNLTQNEHLTTKTVVINSPDVFPVIFKQFLNHVVFVLFPSQNQNFKLNVTNLINLCFYDGILEEGEKTIRYELLELDPMEVDTSKLPWFINFDYLNCINQCFFDFTFACEEEGSLDSYKEGLLKIVKILYYQFNQFKIWINTQPVKSVNANDNFININNLYDDNHLDWNHVLCKVNLKEQCIQIAEFYKDLSGLVQTLQTLDQNDSTTVSLYETFFNEFPKEFSFTLFEYLIKHKKLNDLIFRFPQQHDVLIQFFQESAPKYGHVAWIQQILDGSYADAMNTLKNITVDDSKKGESLSECELHLNVAKLSSLLVEKDNLDINTLRKIQYNLDTIDAEKNISNKLKKGEVQICKRFKNGSIREVFNILVEELKSTTVVNLSDLVELYSMLDDEESLFIPLRLLSVDGNLLNFEVKKFLNALVWRRIVLLNASNEGDKLLQHIVKRVFDEELPKNNDFPLPSVDLLCDKSLLTPEYISETYGRFPIDQNAIREEIYEEISQVETLNSDNSLEIKLHSTIGSVAKEKNYTINYETNTVEYEGHHHHHH | soluble |
| MAHHHHHHMQPKMTAPLTMKDNNKCLSVRVGSTLEIHLEGNPTTGYTWTRVGFVGKEMLSDEHLEVTSKYTPKPVSGSMVGAGGSYTVFVKPLRKGQHAVQLVYARPFEGPKPDNERYTLHLNVE | soluble |
| MRDPFMEALGLKVLHLAPGEAVVAGEVRADHLNLHGTAHGGFLYALADSAFALASNTRGPAVALSCRMDYFRPLGAGARVEARAVEVNLSRRTATYRVEVVSEGKLVALFTGTVFRLGGDGDDVPAGTGNLAPREA | soluble |
| MSLSEVDIAKADPAAASHPLLLNGDATVAQKNPGSVAENNLCSQYEEKVRPCIDLIDSLRALGVEQDLALPAIAVIGDQSSGKSSVLEALSGVALPRGSGIVTRCPLVLKLKKLVNEDKWRGKVSYQDYEIEISDASEVEKEINKAQNAIAGEGMGISHELITLEISSRDVPDLTLIDLPGITRVAVGNQPADIGYKIKTLIKKYIQRQETISLVVVPSNVDIATTEALSMAQEVDPEGDRTIGILTKPDLVDKGTEDKVVDVVRNLVFHLKKGYMIVKCRGQQEIQDQLSLSEALQREKIFFENHPYFRDLLEEGKATVPCLAEKLTSELITHICKSLPLLENQIKETHQRITEELQKYGEGHHHHHH | not soluble |
| MGSDKIHHHHHHMSTELNTMALSVPQGAGLDGYIQSVNRIPMLTAEKEKALATRLYENSDLDAAKELIMSHLRFVVHVARSYSGYGLPQADLIQEGNIGLMKAVKRFDPSVGVRLVSFAVHWIKAEIHEYVLRNWRVVKVATTKAQRKLFFNLRKMKKRLGWFSQKEVETVANELGVSTKEVLEMETRMSAHDQAFELSSDDDDSKEGSAYSPAMYLEDKRSDLAAEIEAKDYENHTQQKLLGAMSHLDERSQDIVQSRWLSEDKTTLHDLAEKYEVSAERVRQLEQNAMKKLRLAMS | not soluble |
| MSLSNIAVSEKDLQRFCRDLLKQSLPDEEAEVIAETLVDADLRGVTSHGVQRVAGYLKRMEDGIIERKTDISVVQDSFATALLDANNGWGQVAGVKAMEMAIQKAGQYGTSFVGVSNSNHFGTASFYTRMAAEKGFIGISMTNASPIMVPFGAKEPSLGPNPISISIPAGEGKKPIILDMSTSNVARGKIMVAKKNKESIPEGWAITKDGKQTTDADEAWEGFVLPMGPKGSGLAIIIDILSGVLTGSLFGKRIPRQYDDPYPQQLGHLFGAINIENFGEPELFYQNVLEKIEETISSEPSEGFDQVYMPGDMESQRKKEYKENGIPLSQEIINELRKTGEKYGVDLEHYLSQNKQREGHHHHHH | soluble |
| MHHHHHHSSGVDLGTENLYFQSMKSVHSSPQNTSHTIMTFYPTMEEFADFNTYVAYMESQGAHQAGLAKVIPPKEWKARQMYDDIEDILIATPLQQVTSGQGGVFTQYHKKKKAMRVGQYRRLANSKKYQTPPHQNFADLEQRYWKSHPGNPPIYGADISGSLFEESTKQWNLGHLGTILDLLEQECGVVIEGVNTPYLYFGMWKTTFAWHTEDMDLYSINYLHFGEPKTWYVVPPEHGQHLERLARELFPDISRGCEAFLRHKVALISPTVLKENGIPFNCMTQEAGEFMVTFPYGYHAGFNHGFNCAEAINFATPRWIDYGKMASQCSCGESTVTFSMDPFVRIVQPESYELWKHR | soluble |
| MNHDIDIKKVRLNCFRQSKVPGEFMLQMRIPGGIVDAKYLSQIQEIAETWGNGTFHMGMRQTFNIPGIKYENIQAVNKFIENYLQEVEVDRCNCDMKVDENGYPTIGARNVMACIGNSHCIKANVDTKDMANKIEKLVFPSHYHIKVSVAGCPNDCAKGHFQDFGVIGQARMEYHEERCIGCGACVRACEHHATRVLSLNDKGLVDKDPCCCVGCGECVLACPASAWTRKPEKFYRIVIGGRTGKQTPRMGKTFINFATEEVVLGIFANWQKFSAWALDYKPEYLHGGHLIDRAGYHKFKEIILDGVELNPEALVADNIFWAETEYRSNFNVKPIKMHKTIESNRPLRLEHHHHHH | not soluble |
| MSLVGNMNREALFKTLTTGYLHFWSLSRKKLWLKGETSGNFQIIEEFKVDCDADAVLFKVTSLGPICHTGNYTCFYRSYDELVNSKSEGHHHHHH | not soluble |
| MAKRKICQAMAVVLALGMCTTGLTGCGNEKRADGKTEIEVVSYKPEAVKAFEKIEKQFNETHDDIHLTISSPNEAMTILKTRFIREDYPDIIAIGGDINYSNFLDADLFEDISDLDAVDNVKEAYLDMDKELEFIPKDGTYALPYAANAAGVLYNKDMFAENGWKVPTTWSEFTALCDEIKESGTLPLYLGFKDTWTCLAPWNALAVGLCDSDTCNQVNMGNTTFEEAYSPVADKIRTLLDYAEDNPYAYSYNDACTAFARGESAMYTIGSYAIPQIKSVNPDMNIGSFTFPANDNEADNVLNSGIDLQLSVMKACKNKEAAYEVLEYLYSDETIQTYLDDQGGIACKEGDFAIPDTLEDMQEYIKDNRMSDYQDHHYPSEMSVDAMIQTYLLDTGDNAKEKFLKKFDSDWERYNRDLIREVQDYQKEQEDAK | not soluble |
| SKQPDKQRKSQRRAPLHERHKQVRATLSADLREEYGQRNVRVNAGDTVEVLRGDFAGEEGEVINVDLDKAVIHVEDVTLEKTDGEEVPRPLDTSNVRVTDLDLEDEKREARLESEDDSA | soluble |
| MSDQMRIPCVIMRAGTSKGIFLKGNDLPADQELRDKVILRIFGSPDVRQIDGLAGADPLTSKLAIIGPSTHPDADVDYTFAQVSITDAVVDYNGNCGNISAGVGPFAIDESFVKAVEPMTRVCIHNTNTGKLLYAEVEVEDGKAKVSGDCKIDGVPGTNAPELMDFSDTAGAATGKVLPTGNVVDVLSTSKGDIDVSIVDVANPCIFVHAKDVNMTGTETPDVINGNADLLAYLEEIRAKCCVKIGMAATEKEASEKSPAFPMIAFVTKPEDYVDFSTGNTISGDDVDLVSRLMFMQVLHKTYAGTATACTGSAARIPGTIVNQVLRDTGDEDTVRIGHPAGVIPVVSIVKDGKVEKAALIRTARRIMEGYVYVEKAKLVGSAWSHPQFEK | soluble |
